Values joined by “and” are separate entries in the source; they are usually repeats but may differ in a detail not shown here. Equal values may be shown once.
Target: recombinant soluble PSMA (rsPSMA) (human, UniProt Q04609 44-750)
Sequence (Q04609 44-750): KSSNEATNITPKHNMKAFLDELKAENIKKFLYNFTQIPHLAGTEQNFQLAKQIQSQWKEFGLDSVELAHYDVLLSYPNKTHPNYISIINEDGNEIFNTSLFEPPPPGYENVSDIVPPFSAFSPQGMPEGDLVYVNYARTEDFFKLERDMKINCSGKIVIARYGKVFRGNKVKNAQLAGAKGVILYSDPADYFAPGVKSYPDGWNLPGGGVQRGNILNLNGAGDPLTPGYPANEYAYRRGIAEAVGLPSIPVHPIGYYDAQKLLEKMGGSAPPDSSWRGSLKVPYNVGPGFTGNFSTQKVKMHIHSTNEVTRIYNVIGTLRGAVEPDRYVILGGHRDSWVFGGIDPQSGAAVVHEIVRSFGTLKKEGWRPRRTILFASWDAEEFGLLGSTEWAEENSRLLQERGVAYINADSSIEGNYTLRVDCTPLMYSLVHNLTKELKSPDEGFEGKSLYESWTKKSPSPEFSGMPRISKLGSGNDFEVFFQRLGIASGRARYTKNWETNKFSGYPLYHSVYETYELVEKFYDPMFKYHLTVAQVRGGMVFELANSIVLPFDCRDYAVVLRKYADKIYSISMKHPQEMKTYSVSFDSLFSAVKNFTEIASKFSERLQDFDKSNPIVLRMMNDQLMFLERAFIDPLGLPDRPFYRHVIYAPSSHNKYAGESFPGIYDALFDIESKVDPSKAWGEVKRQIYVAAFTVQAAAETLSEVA

B1: PSMA 10.3 (antibody, V domains shown)
VH: QEQLVESGGGVVQPGRSLRLSCAASGFTFSTYGMHWVRQAPGKGLEWVAVTWHDGSNKYYADSVKGRFTISRDNSKNTLYLQMNSLRAEDTAVYYCARGGVGATYYYYYGMDVWGQGTTVTVSS
VL: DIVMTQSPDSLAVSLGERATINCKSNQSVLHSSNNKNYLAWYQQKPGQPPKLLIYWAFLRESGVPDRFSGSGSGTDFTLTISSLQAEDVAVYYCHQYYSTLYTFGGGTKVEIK
- koff: 6.32e-05 s⁻¹ and 6.43e-05 s⁻¹
